Assay results taken from article PMC7094256 (Febs Letters, 2005).

B1: GST-tagged human heterogeneous nuclear ribonucleoprotein A1 (natural protein)
chain: MSKSESPKEPEQLRKLFIGGLSFETTDESLRSHFEQWGTLTDCVVMRDPNTKRSRGFGFVTYATVEEVDAAMNARPHKVDGRVVEPKRAVSREDSQRPGAHLTVKKIFVGGIKEDTEEHHLRDYFEQYGKIEVIEIMTDRGSGKKRGFAFVTFDDHDSVDKIVIQKYHTVNGHNCEVRKALSKQEMASASSSQRGRSGSGNFGGGRGGGFGGNDNFGRGGNFSGRGGFGGSRGGGGYGGSGDGYNGFGNDGSNFGGGGSYNDFGNYNNQSSNFGPMKGGNFGGRSSGPYGGGGQYFAKPRNQGGYGGSSSSSSYGSGRRF

Legend:
[1] = target: His-tagged nucleocapsid protein of SARS coronavirus (SARS coronavirus, UniProt P59595 1-422); experiment: SPR
[2] = target: B1; experiment: SPR

Chain of His-tagged nucleocapsid protein of SARS coronavirus (P59595 whole entry): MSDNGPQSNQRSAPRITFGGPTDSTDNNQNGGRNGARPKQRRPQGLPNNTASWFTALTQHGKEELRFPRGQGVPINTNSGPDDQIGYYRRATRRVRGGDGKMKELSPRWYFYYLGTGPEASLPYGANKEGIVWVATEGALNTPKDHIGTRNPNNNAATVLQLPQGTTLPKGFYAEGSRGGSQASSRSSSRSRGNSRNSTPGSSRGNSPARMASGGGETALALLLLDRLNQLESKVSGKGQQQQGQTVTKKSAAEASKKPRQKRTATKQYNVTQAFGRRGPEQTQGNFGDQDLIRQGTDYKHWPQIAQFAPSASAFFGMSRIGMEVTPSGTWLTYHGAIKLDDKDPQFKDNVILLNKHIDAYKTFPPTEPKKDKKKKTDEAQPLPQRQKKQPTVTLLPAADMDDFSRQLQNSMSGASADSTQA

Binder | Kd [1] | koff [1] | kon [1] | Kd [2]
B1 | 0.35 ± 0.02 µM | 0.00206 s⁻¹ | 5830 M⁻¹ s⁻¹ | 
ASSRSSSRSRGNSRN [synthesized peptide ASSRSSSRSRGNSRN (aa 183–197 of SARS_N)] |  |  |  | 148 ± 12 µM
